According to the supplement of paper PMC12042874:
± gives the uncertainty stated by the source.

Assay: amyloid nucleation score (Sup35N fusion, yeast selection) (log enrichment); library NNK1; higher = more nucleation; inactive = no reads after selection
Outline: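 DiMSum was used to calculate nucleation scores as log enrichment of output over input reads, centred on the mode score of non-aggregating sequences. Sequences with fewer than 100 input reads were not scored. Input and output came from Illumina sequencing of plasmid inserts in psi-negative yeast expressing peptides of 20 random codons fused to Sup35N, induced 24 hours with 100 μM copper sulfate and then grown 7 days at 30°C on medium lacking adenine and uracil.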

| Substance | amyloid nucleation score |
| --- | --- |
| DSYDTTSNRAPVMLKVNYSM | -0.692 ± 0.64 |
| DTINAGWSHLEARCLRFLHV | -0.795 ± 0.38 |
| DTKNAWLILSTYLDNLFHIS | 0.976 ± 0.33 |
| DTLPRFRSRNSIVRNLSKNG | inactive |
| DVAARVQKNCPVIIGAIRSK | 0.091 ± 1.6 |
| DVEIFTISWVKEVVYRDTWA | 1.59 ± 0.7 |
| DVGCLCNNMHMILILLNYRV | 0.446 ± 0.44 |
| DVILCAK | inactive |
| DVISLTHVEKSWLVSLWKRS | -0.045 ± 0.69 |
| DVVLVYGTITGSWVQSVWEG | 0.553 ± 0.69 |
| DVVSFSKVCVVCGLSWSASY | 6.662 ± 0.06 |
| DWANSTDFV | -0.195 ± 0.18 |
| DWFWWKIVGWVRNSNMRSYS | 0.946 ± 0.6 |
| DWGERRLSRFNGAYSVVTMV | 0.599 ± 0.6 |
| DWGPTNTFGPYQINNLTCSS | -1.91 ± 1.9 |
| DWLVRGVFPYVGMLDIALTY | 0.356 ± 0.72 |
| DWNVQGQWFHQC | 0.677 ± 0.72 |
| DWPMELLASYMTPMLVTRV | inactive |
| DWRFSGALRLSLMHTYQ | 4.09 ± 0.072 |
| DWSSRVFPGSLGTKAGSHA | -1.58 ± 1.4 |
| DYDRTSFFEDSFVTD | -0.7 ± 1.1 |
| DYESSVGRSQDLAY | -0.745 ± 2.4 |
| DYRTCSCF | inactive |
| DYTILYVVWILCGIKMSVVI | 0.699 ± 0.66 |

| Substance | amyloid nucleation score |
| --- | --- |
| DYVHFMCHGLGR | -0.185 ± 0.63 |
| DYWRHSHVLHSPTKRKNRLV | 0.223 ± 0.34 |
| EACETLRLYELCLFKWERFR | 0.47 ± 0.58 |
| EAFRLCGLVRACVAFCG | 0.116 ± 0.3 |
| EAIISNCNFVIQIMCYHYTA | inactive |
| ECCWLRVTRLGLWDDVVHSE | -0.163 ± 0.33 |
| ECDYDYGTSWSQVSYVRGV | -0.773 ± 1.2 |
| ECPRVSLASGDVE | 1.17 ± 0.66 |
| ECQCFDQICEQLNSYRDQFS | 0.105 ± 0.97 |
| ECTRSGVFSCNSWIKYESSM | -0.145 ± 0.31 |
| EDKYFA | 0.323 ± 0.69 |
| EDRYGIVC | -0.25 ± 0.74 |
| EEGDAAGVVILNMQRSYG | -0.427 ± 0.41 |
| EFIIAWVWRLHNWVSGFRHS | 0.343 ± 0.35 |
| EFMYYL | -0.979 ± 1.9 |
| EFPIHQERAPSTTIHPSVSC | 0.765 ± 0.9 |
| EFRMFTLKLR | 1.13 ± 0.65 |
| EGDYNGGCCQGLLNCQ | -0.562 ± 0.56 |
| EGFITSSMALGLHFVLLGWV | -1.37 ± 1.3 |
| EGNSDCLWVGYGASMTRWVR | 0.258 ± 0.88 |
| EGQTGLLVWYGSHSVRLGNF | -0.957 ± 2.4 |
| EGRLTVE | -0.011 ± 0.32 |
| EGRSWLGTESGLYGNVREND | 0.577 ± 0.68 |
| EGSVGHRMVSWVFISYTLVL | 0.006 ± 1.1 |

| Substance | amyloid nucleation score |
| --- | --- |
| EGWPTSTLSLSRYALLGSPR | -0.486 ± 0.66 |
| EHLRFKKANNVLYVNESSSV | -1.59 ± 1.3 |
| EICMRPY | -0.081 ± 1.1 |
| EICSSESAVQKHNSPWGSDY | -1.71 ± 2.7 |
| EIGYMGLSVSIFRCVWLFIF | 0.056 ± 0.34 |
| EIKISSDGTVSMARGRWCQG | 6.615 ± 0.05 |
| EILETGRCLSFLYRIVDGCI | inactive |
| EILFFEFFKNEFLYCHKMLC | 0.902 ± 0.4 |
| EKELIK | 1.1 ± 0.61 |
| EKGFVYYTRGYLRDGLGRSQ | -0.222 ± 0.35 |
| EKILLG | -1.8 ± 2.4 |
| EKLKMVVGWVVPLSAHMQEY | 0.609 ± 0.84 |
| EKRLYGYLKDHLE | -0.605 ± 0.35 |
| EKVILHANCFCITMNRMLYH | -0.015 ± 0.39 |
| ELCAQYVIFSFASSRSYDSY | 0.579 ± 0.28 |
| ELGSGFQFVYSYS | -0.465 ± 0.46 |
| ELHTAEFNLNRM | 1.04 ± 0.73 |
| ELIHILDLVVTPGRFGRPVN | 2.58 ± 0.36 |
| ELKLLSNAFGMQGIWIRRVV | -0.113 ± 0.32 |
| ELKRGVHLRPE | 4.36 ± 0.14 |
| ELKTFTDKIGG | inactive |
| ELLYGWGIP | -0.723 ± 0.76 |
